# In paper doi:10.1101/2023.06.15.545071, “POLARIS is a copper-binding peptide required for ethylene signalling control in Arabidopsis” (bioRxiv, 2023):
# Target: T1, PLS linked to a C-terminal GFP (p35S::PLS:GFP) (Arabidopsis thaliana, UniProt Q8LLV8 1-36)
# T1 construct: POLARIS (PLS) peptide, Arabidopsis thaliana, 36 amino acids; 'the 105-nucleotide PLS gene (without the stop codon)' in pEarlyGate103; source: Nicotiana benthamiana leaves, Agrobacterium infiltration, transient expression, in protein extract; not shown: GFP, C-terminal, kept
# Test: co-IP; PLS:GFP and ETR1:HA co-expressed in N. benthamiana leaves, 3 d; anti-GFP beads or anti-HA beads, western blot; extract with 0.5 μM copper sulphate or 2 mM EDTA
# Details: partners not purified
# T1 sequence (Q8LLV8 whole entry): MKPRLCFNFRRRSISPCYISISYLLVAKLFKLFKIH
binder,measurement,value
"ETR1 with a C-terminal HA tag (p35S::ETR1:HA) (receptor, Arabidopsis, UniProt P49333 1-738, looked up, 'the ETR1 cDNA' in pEarlyGate301; source: Nicotiana benthamiana leaves, Agrobacterium infiltration, transient expression, in protein extract; not shown: HA, C-terminal, kept) MEVCNCIEPQWPADELLMKYQYISDFFIAIAYFSIPLELIYFVKKSAVFPYRWVLVQFGAFIVLCGATHLINLWTFTTHSRTVALVMTTAKVLTAVVSCATALMLVHIIPDLLSVKTRELFLKNKAAELDREMGLIRTQEETGRHVRMLTHEIRSTLDRHTILKTTLVELGRTLALEECALWMPTRTGLELQLSYTLRHQHPVEYTVPIQLPVINQVFGTSRAVKISPNSPVARLRPVSGKYMLGEVVAVRVPLLHLSNFQINDWPELSTKRYALMVLMLPSDSARQWHVHELELVEVVADQVAVALSHAAILEESMRARDLLMEQNVALDLARREAETAIRARNDFLAVMNHEMRTPMHAIIALSSLLQETELTPEQRLMVETILKSSNLLATLMNDVLDLSRLEDGSLQLELGTFNLHTLFREVLNLIKPIAVVKKLPITLNLAPDLPEFVVGDEKRLMQIILNIVGNAVKFSKQGSISVTALVTKSDTRAADFFVVPTGSHFYLRVKVKDSGAGINPQDIPKIFTKFAQTQSLATRSSGGSGLGLAISKRFVNLMEGNIWIESDGLGKGCTAIFDVKLGISERSNESKQSGIPKVPAIPRHSNFTGLKVLVMDENGVSRMVTKGLLVHLGCEVTTVSSNEECLRVVSHEHKVVFMDVCMPGVENYQIALRIHEKFTKQRHQRPLLVALSGNTDKSTKEKCMSFGLDGVLLKPVSLDNIRDVLSDLLEPRVLYEGM",fold more co-precipitated with copper ions than with 2 mM EDTA,~3 fold
